Target: the molecule itself
Test: cross-linking

B1: C-terminal fragment of bovine ROS-GC1 comprising the αHD and CD (aa 814-1110) (domain or fragment, UniProt P55203 814-1110, looked up)
chain: NKGRKMNIIDSMLRMLEQYSSNLEDLIRERTEELELEKQKTDRLLTQMLPPSVAEALKMGTPVEPEYFEEVTLYFSDIVGFTTISAMSEPIEVVDLLNDLYTLFDAIIGSHDVYKVETIGDAYMVASGLPQRNGHRHAAEIANMALDILSAVGTFRMRHMPEVPVRIRIGLHSGPCVAGVVGLTMPRYCLFGDTVNTASAMESTGLPYRIHVNRSTVQILSALNEGFLTEVRGRTELKGKGAEETYWLVGRRGFNKPIPKPPDLQPGASNHGISLHEIPPDRRQKLEKARPGQFSGK
binding result: binds

Reference: paper doi:10.1101/2020.09.25.312835 (bioRxiv, 2020)
